This is an account of results in patent US20160355587A1 (CYTOMX THERAPEUTICS, published 2016).

In assay [1] the target is T1, human CD166 protein (human, UniProt Q13740 28-526, limits assumed).
T1 construct: Isolated human CD166 protein coated on ELISA plates; also called ALCAM
T1 sequence (looked up): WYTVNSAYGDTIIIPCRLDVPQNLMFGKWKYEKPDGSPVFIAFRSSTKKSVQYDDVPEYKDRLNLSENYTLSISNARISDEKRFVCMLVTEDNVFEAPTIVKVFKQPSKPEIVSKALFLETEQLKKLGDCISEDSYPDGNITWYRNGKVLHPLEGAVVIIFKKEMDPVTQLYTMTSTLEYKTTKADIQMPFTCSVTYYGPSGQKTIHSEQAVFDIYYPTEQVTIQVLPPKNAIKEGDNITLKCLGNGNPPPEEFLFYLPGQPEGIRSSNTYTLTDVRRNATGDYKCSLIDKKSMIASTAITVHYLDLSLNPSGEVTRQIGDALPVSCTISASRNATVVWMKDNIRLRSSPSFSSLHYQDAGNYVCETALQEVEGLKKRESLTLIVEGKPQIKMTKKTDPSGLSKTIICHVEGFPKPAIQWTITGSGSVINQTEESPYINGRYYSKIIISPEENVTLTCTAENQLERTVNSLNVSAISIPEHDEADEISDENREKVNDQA
The assay can be described thus: ELISA, human CD166 protein coated; positive control. As to the method:
The antibody CD166-M9 antibody comprising VH of SEQ ID NO: 119, VL of SEQ ID NO: 120 was used a positive control, and an isotype control antibody was used a negative control.
Using a standard ELISA protocol, human CD166 protein was absorbed to ELISA plates and subsequently incubated with the indicated concentration of antibody. Bound antibody was detected with an anti-human FAB-peroxidase secondary.
(ELISA stands for enzyme-linked immunosorbent assay.)

Assay [2] has as its target T1, human CD166 protein. Put plainly: ELISA, human CD166 protein coated, anti-human FAB-peroxidase.

B1: CD166-M9 antibody (mouse anti-CD166 Mab M9) (antibody, V domains shown)
VH: QVTLKESGPGILQPSQTLSLTCSFSGFSLSTYGMGVGWIRQPSGKGLEWLANIWWSEDKHYNSALKSRLTISKDTSNNQVFLKISSVDTADTATYYCVQIDYGNDYAFTYWGQGTLVTVSA
VL: DIVMTQAAFSNPVTLGTSASISCRSSKSLLHSNGITYLYWYLQKPGQSPQLLIYQMSNLASGVPDRFSSSGSGTDFTLRISRVEAEDVGVYYCAQNLELPYTFGGGTKLEIKR
notes: Obtained by mouse hybridoma technology; also called M9 mAb; muM9
For B1, the binding result with human CD166 protein [1] is “binds”.

B2: CD166-M9_vk3a/HcB (antibody, V domains shown)
VH: QITLKESGPTLVKPTQTLTLTCTFSGFSLSTYGMGVGWIRQPPGKALEWLANIWWSEDKHYSPSLKSRLTITKDTSKNQVVLTMTNMDPVDTATYYCVQIDYGNDYAFTYWGQGTLVTVSS
VL: DIVMTQSPLSLPVTPGEPASISCRSSQSLLHSNGITYLYWYLQKPGQSPQLLIYQMSNRASGVPDRFSGSGSGTDFTLKISRVEAEDVGVYYCAQNLELPYTFGQGTKLEIK
notes: Humanized M9
Regarding B2, the binding result in the assay with human CD166 protein [2] is given as “binds”.
